According to paper doi:10.1101/2025.09.24.25335646 (medRxiv, 2025):

How the values were obtained:
[1] = biological target: A/New York/631/1996 H3N2 hemagglutinin head domain (HA1 43-309) (Influenza A virus A/New York/631/1996 …, strain); test: crystal structure
[2] = biological target: A/California/07/2009 H1N1 hemagglutinin, recombinant HA used for negative-stain EM (Influenza A virus A/California/07/2009 …, UniProt C3W5X2, strain); test: negative-stain EM

Binder | binding result [1] | binding result [2]
Fab 3_H2 (Fab, V domains shown) VH: QGTLKESGPAMVKPTQTLTLTCTFSGFSLDTSGMCVAWIRQPPGKALEWLALFDWDNNKYYSPSLKTRLNMSKGRSRNQVVLTMTNMDPVDTGTYYCARKVYGSFYYGMDVWGQGTTVTVSS VL: DIVLTQSPATLSLSPGDSATLSCRASQDVSANLAWYQQKPGQAPRLVIYDATNRATGIPARFSGSGLGTDFTLTISSLEPEDFAVYYCQQRSNWPPVYTFGQGTKLEIK | binds | –
3_H2 monoclonal antibody (IgG1) (antibody, V domains shown) VH: QGTLKESGPAMVKPTQTLTLTCTFSGFSLDTSGMCVAWIRQPPGKALEWLALFDWDNNKYYSPSLKTRLNMSKGRSRNQVVLTMTNMDPVDTGTYYCARKVYGSFYYGMDVWGQGTTVTVSS VL: DIVLTQSPATLSLSPGDSATLSCRASQDVSANLAWYQQKPGQAPRLVIYDATNRATGIPARFSGSGLGTDFTLTISSLEPEDFAVYYCQQRSNWPPVYTFGQGTKLEIK | – | binds
Fab 49_C09 (Fab, V domains shown) VH: QSTLKESGPTLVKPTETLTLTCTFSGFSLHTSGVGVGWIRQPPGKALECLALIYWNDDARYSPSLQSRLTITKDTSKNQVVLTMSNMDPVDTATYYCAHKGGGRDGYNSAAFDVWGQGTMVTVSS VL: SYVLTQPPSVSVAPGQTARIPCGGNNIGMKTVHWYQQRPGQAPVVVVYDDSRRPSGIPERFSGSNSGNTATLTISRVEAGDEADYYCQVWDSSVNHWVFGGGTKLTVL | binds | –
49_C09 monoclonal antibody (IgG1) (antibody, V domains shown) VH: QSTLKESGPTLVKPTETLTLTCTFSGFSLHTSGVGVGWIRQPPGKALECLALIYWNDDARYSPSLQSRLTITKDTSKNQVVLTMSNMDPVDTATYYCAHKGGGRDGYNSAAFDVWGQGTMVTVSS VL: SYVLTQPPSVSVAPGQTARIPCGGNNIGMKTVHWYQQRPGQAPVVVVYDDSRRPSGIPERFSGSNSGNTATLTISRVEAGDEADYYCQVWDSSVNHWVFGGGTKLTVL | – | binds
